Tests used:
horseradish peroxidase = tested on: T1, horseradish peroxidase; test: spectrophotometric initial rates at […] nm (purpurogallin), non-linear Michaelis-Menten fit; assay type: biochemical, Armoracia rusticana; settings: free enzyme; co-substrate 10 mM H2O2; 100 mM phosphate pH 6.0; 30 °C; pyrogallol 1-8 mM
T1 construct: gene PRXC1A

COc1cccc(CO)c1 = test: purified protein; settings: free enzyme, Tris-HCl 50 mM pH 7.1, 37 °C, substrate 3-60 mM

Row | Compound | Km (horseradish peroxidase) [mM] | Km (COc1cccc(CO)c1) [mM] | Vmax (COc1cccc(CO)c1) [µmol/min/mg]
1 | Oc1cccc(O)c1O [pyrogallol] | 2.21 ± 0.04 |  | 
2 | galactose oxidase (Fusarium graminearum) |  | 17.6 ± 1.3 | 216
